Test results from patent US20160130329A1 (UNIVERSITY OF CHICAGO, published 2016).
Blank lines part the entries; values can stand above or below the binder they belong to. Where no end group is shown, it is not given here. [ ]: non-standard residue; d: D form. Lys(Me3) = C[N+](C)(C)CCCC[C@H](N)C(=O)O

Columns and labels:
[1] = biological target: T1, H3K4me3 peptide (also: biotinylated, site not given here); assay: yeast display, flow cytometry [A]
T1 peptide: ART[Lys(Me3)]QTARKSTGGYCD

[2] = biological target: T2, H3K27me3 peptide (trimethyl-lysine at K27 (histone H3 numbering); biotinylated through the GYCD tag); assay: yeast display, flow cytometry [A]
T2 peptide: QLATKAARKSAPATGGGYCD

[3] = biological target: T2, H3K27me3 peptide; assay: phage ELISA [B]
[4] = biological target: T3, H4K20me3 peptide (trimethyl-lysine at K20 (histone H4 numbering); biotinylated through the GYCD tag); assay: phage ELISA [B]
T3 peptide: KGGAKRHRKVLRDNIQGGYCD

[5] = biological target: T1, H3K4me3 peptide; assay: phage ELISA
[6] = biological target: T4, H3K36me3 peptide (K(me3) at H3 K36; K(biotin) near the C-terminus, as printed: SAPATGGVK-K(me3)-PHRYRPGG-K(biotin)-D); assay: phage ELISA
T4 peptide: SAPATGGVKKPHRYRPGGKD

B1: 36H1 (scFv)
scFv: EVQLVETGGGVVQPGRSLRLSCTASGFTFRDYWMSWVRQAPGKGLEWVADISKEGKYMYYLDAVKGRFTISRDNAKSSLYLQMNSLGAEDTAVYYCARDLNYGAGWHFDLWGRGTLVTVSSSYVLTQPPSVSVAPGQTARITCGGTNIGDISVHWYQQRPGQAPLVVVYDDSDRPSGIPERFSGSNSGNTATLTISRVEAGDEADYYCQVWDDSINAYVFGTGTKVTVL
binding result [1]: no binding (tested: 500 nM) | binding result [2]: no binding (tested: 500 nM)

B4: 4H2 (scFv)
scFv: EVQLVETGGGVVQPGRSLRLSCTASGFTFRDYWMSWVRQAPGKGLEWVADISKDGSASYYVDAVKGRFTISRDNAKSSLYLQMNSLGAEDTAVYYCARDFVSGYGWHFDLWGRGTLVTVSSSYVLTQPPSVSVAPGQTARITCGGTNIGDISVHWYQQRPGQAPLVVVYDDSDRPSGIPERFSGSNSGNTATLTISRVEAGDEADYYCQVWDDSINAYVFGTGTKVTVL
binding result [3]: no binding (tested: 100 nM peptide) | binding result [4]: no binding (tested: 100 nM peptide)

B5: 4H1 (scFv)
scFv: EVQLVETGGGVVQPGRSLRLSCTASGFTFRDYWMSWVRQAPGKGLEWVADIGEHGSFSYYLDAVKGRFTISRDNAKSSLYLQMNSLGAEDTAVYYCARNFSRGYGWHFDLWGRGTLVTVSSSYVLTQPPSVSVAPGQTARITCGGTNIGDISVHWYQQRPGQAPLVVVYDDSDRPSGIPERFSGSNSGNTATLTISRVEAGDEADYYCQVWDDSINAYVFGTGTKVTVL
binding result [3]: no binding (tested: 100 nM peptide) | binding result [4]: no binding (tested: 100 nM peptide)

B7: 4H3 (scFv)
scFv: EVQLVETGGGVVQPGRSLRLSCTASGFTFRDNWMSWVRQAPGKGLEWVADIAEDGKAMYYIDAVKGRFTISRDNAKSSLYLQMNSLGAEDTAVYYCARVFSRGYGWHFDLWGRGTLVTVSSSYVLTQPPSVSVAPGQTARITCGGTNIGDISVHWYQQRPGQAPLVVVYDDSDRPSGIPERFSGSNSGNTATLTISRVEAGDEADYYCQVWDDSINAYVFGTGTKVTVL
binding result [4]: no binding (tested: 100 nM peptide)

B9: 27F40 (scFv)
scFv: EVQLVETGGGVVQPGRSLRLSCTASGFTFRDYWMSWVRQAPGKGLEWVADINPDGITRYYIDAVKGRFTISRDNAKSSLYLQMNSLGAEDTAVYYCAREFTNVYGWHFDLWGRGTLVTVSSSYVLTQPPSVSVAPGQTARITCGGTNISNTYVHWYQQRPGQAPLVVVYSSPARPSGIPERFSGSNSGNTATLTISRVEAGDEADYYCQVWDDSINAYVFGTGTKVTVL
binding result [6]: no binding (tested: 100 nM peptide)

B12: 20F78 (scFv)
scFv: EVQLVETGGGVVQPGRSLRLSCTASGFTFRDYWMSWVRQAPGKGLEWVADINPDGITRYYIDAVKGRFTISRDNAKSSLYLQMNSLGAEDTAVYYCAREFPNNYGWHFDLWGRGTLVTVSSSYVLTQPPSVSVAPGQTARITCGGTNIDHRVPVHWYQQRPGQAPLVVVYAYSSRPSGIPERFSGSNSGNTATLTISRVEAGDEADYYCQVWDDSINAYVFGTGTKVTVL
binding result [5]: no binding (tested: 100 nM peptide)

Continued, values first:

binding result [1]: no binding (tested: 500 nM) | binding result [2]: no binding (tested: 500 nM)
B2: 36H2 (scFv)
scFv: EVQLVETGGGVVQPGRSLRLSCTASGFTFRDHWMSWVRQAPGKGLEWVADISKEGKYMYYLDAVKGRFTISRDNAKSSLYLQMNSLGAEDTAVYYCARDLNYGAGWHFDLWGRGTLVTVSSSYVLTQPPSVSVAPGQTARITCGGTNIGDISVHWYQQRPGQAPLVVVYDDSDRPSGIPERFSGSNSGNTATLTISRVEAGDEADYYCQVWDDSINAYVFGTGTKVTVL

binding result [1]: no binding (tested: 500 nM) | binding result [2]: no binding (tested: 500 nM)
B3: 36H5 (scFv)
scFv: EVQLVETGGGVVQPGRSLRLSCTASGFTFRDYWVSWVRQAPGKGLEWVADISKEGKYMYYLDAVKGRFTISRDNAKSSLYLQMNSLGAEDTAVYYCARDLNYGAGWHFDLWGRGTLVTVSSSYVLTQPPSVSVAPGQTARITCGGTNIGDISVHWYQQRPGQAPLVVVYDDSDRPSGIPERFSGSNSGNTATLTISRVEAGDEADYYCQVWDDSINAYVFGTGTKVTVL

binding result [1]: no binding (tested: 500 nM) | binding result [2]: no binding (tested: 500 nM)
B6: 36H4 (scFv)
scFv: EVQLVETGGGVVQPGRSLRLSCTASGFTFRDHWMSWVRQAPGKGLEWVADISKEGKYMYYLDAVKGRFTISRDNAKSSLYLQMNSLGAEDTAVYYCARDLNYGAGWHFDVWGRGTLVTVSSSYVLTQPPSVSVAPGQTARITCGGTNIGDISVHWYQQRPGQAPLVVVYDDSDRPSGIPERFSGSNSGNTATLTISRVEAGDEADYYCQVWDDSINAYVFGTGTKVTVL

binding result [5]: no binding (tested: 100 nM peptide)
B8: 20F87 (scFv)
scFv: EVQLVETGGGVVQPGRSLRLSCTASGFTFRDYWMSWVRQAPGKGLEWVADINPDGITRYYIDAVKGRFTISRDNAKSSLYLQMNSLGAEDTAVYYCAREFYGSWHFDLWGRGTLVTVSSSYVLTQPPSVSVAPGQTARITCGGTNISHSSGDVHWYQQRPGQAPLVVVYYSYARPSGIPERFSGSNSGNTATLTISRVEAGDEADYYCQVWDDSINAYVFGTGTKVTVL

binding result [6]: no binding (tested: 100 nM peptide)
B10: 27F12 (scFv)
scFv: EVQLVETGGGVVQPGRSLRLSCTASGFTFRDYWMSWVRQAPGKGLEWVADINPDGITRYYIDAVKGRFTISRDNAKSSLYLQMNSLGAEDTAVYYCAREFTNAYGWHFDLWGRGTLVTVSSSYVLTQPPSVSVAPGQTARITCGGTNIISTYVHWYQQRPGQAPLVVVYAHSDRPSGIPERFSGSNSGNTATLTISRVEAGDEADYYCQVWDDSINAYVFGTGTKVTVL

binding result [6]: no binding (tested: 100 nM peptide)
B11: 27F52 (scFv)
scFv: EVQLVETGGGVVQPGRSLRLSCTASGFTFRDYWMSWVRQAPGKGLEWVADINPDGITRYYIDAVKGRFTISRDNAKSSLYLQMNSLGAEDTAVYYCAREFNNVYGWHFDLWGRGTLVTVSSSYVLTQPPSVSVAPGQTARITCGGTNINDTYVHWYQQRPGQAPLVVVYSSDPRPSGIPERFSGSNSGNTATLTISRVEAGDEADYYCQVWDDSINAYVFGTGTKVTVL

binding result [5]: no binding (tested: 100 nM peptide)
B13: 20F94 (scFv)
scFv: EVQLVETGGGVVQPGRSLRLSCTASGFTFRDYWMSWVRQAPGKGLEWVADINPDGITRYYIDAVKGRFTISRDNAKSSLYLQMNSLGAEDTAVYYCAREFPYINIWHFDLWGRGTLVTVSSSYVLTQPPSVSVAPGQTARITCGGTNIADYTTVHWYQQRPGQAPLVVVYANSARPSGIPERFSGSNSGNTATLTISRVEAGDEADYYCQVWDDSINAYVFGTGTKVTVL

binding result [5]: no binding (tested: 100 nM peptide)
B14: 20F109 (scFv)
scFv: EVQLVETGGGVVQPGRSLRLSCTASGFTFRDYWMSWVRQAPGKGLEWVADINPDGITRYYIDAVKGRFTISRDNAKSSLYLQMNSLGAEDTAVYYCAREFHPGRYDWHFDLWGRGTLVTVSSSYVLTQPPSVSVAPGQTARITCGGTNISSSSVHWYQQRPGQAPLVVVYDDNYRPSGIPERFSGSNSGNTATLTISRVEAGDEADYYCQVWDDSINAYVFGTGTKVTVL
